Source: publication PMC7595633 (PLoS Neglected Tropical Diseases, 2020)
“And” between values parts separate entries of the source, which are not always exact repeats. Equal values may be shown once.

Legend:
[1] = biological target: the molecule itself; test: native gel or EMSA; PhastGel gradient 8-25%, room temperature; 1 mg/mL (methods), 2 mg/mL (legend of Fig 1D); Coomassie stained
[2] = biological target: the molecule itself; test: AUC; sedimentation equilibrium; tetramer to dimers; 0.5, 0.75 and 1.0 mg/mL; 8,000, 10,000 and 12,000 rpm, 4°C; global fit in SEDPHAT

B1: Trypanosoma brucei selenophosphate synthetase (TbSEPHS2), recombinant full-length (enzyme, UniProt Q38A34 1-393, looked up)
chain: MSEKEGKVIPETNGMKRPRFDPVKLGLPEEFTLTDYTRLKGCSCKVPQPELLALLQSVSTTPGRRDVGMDCSIVKLQHKDETGKPLYMVSTTDFFFPSVEDPYLQGQIGAANVLSDLYSTGIDRCDTVLMLLAASTDMDKTEREVCTQEMMKGFVDHVRLAGSDVTGGQTVMNPWPLIGGIATSVVAESQMIRPTGLQPGDILVLTKPLGCQIAVNLKQWLRRPSPIFEEQIQGKMDSEEIEELYNAAADGMKRLNRMAAALMHSHGAHGATDVTGFGILGHAKNLGSAQKADVCLVLDSLPMYRGAVKASKLMGDKYRLFEGYAAETSGGLLVAFGTREEAEGYIRELYETDGEPAWVVGRVVRREGSAPYALLQKDYKIIEVGAKVNDKII
notes: selenophosphate synthetase SEPHS2 of Trypanosoma brucei, Tb927.10.9410, 393 residues (from the limits of the truncated constructs); also called SPS2; TbSPSH2
With B1 the “stoichiometry N” value [1] was 2 and 4 and the Kd [2] was 161 ± 10 µM.
